The source of these data is patent US8084418B2.

This test deals with XptA2wi (Xenorhabdus nematophilus str Xwi).

Regarding XptB1xb + XptC1xb, the dead corn earworm larvae of 8 (pDAB6026 lysate + purified XptA2wi) (dead insects (of 8)) was determined as 8.
